Values of other authors in patent US6699832B2 (Pfizer Inc., priority 2000, dated 2004).
Where no end group is shown, it is not given here.

How the values were obtained:
neurotensin-1 receptor = neurotensin-1 receptor (Homo sapiens, UniProt P30989); conditions: read-out: binding affinity at the neurotensin-1 receptor
neurotensin-2 receptor = neurotensin-2 receptor (Homo sapiens, UniProt O95665); conditions: read-out: binding affinity at the neurotensin-2 receptor
[1] = tested on: neurotensin-1 and neurotensin-2 receptors; conditions: non-selective antagonist

Sequence of neurotensin-2 receptor (O95665 whole entry): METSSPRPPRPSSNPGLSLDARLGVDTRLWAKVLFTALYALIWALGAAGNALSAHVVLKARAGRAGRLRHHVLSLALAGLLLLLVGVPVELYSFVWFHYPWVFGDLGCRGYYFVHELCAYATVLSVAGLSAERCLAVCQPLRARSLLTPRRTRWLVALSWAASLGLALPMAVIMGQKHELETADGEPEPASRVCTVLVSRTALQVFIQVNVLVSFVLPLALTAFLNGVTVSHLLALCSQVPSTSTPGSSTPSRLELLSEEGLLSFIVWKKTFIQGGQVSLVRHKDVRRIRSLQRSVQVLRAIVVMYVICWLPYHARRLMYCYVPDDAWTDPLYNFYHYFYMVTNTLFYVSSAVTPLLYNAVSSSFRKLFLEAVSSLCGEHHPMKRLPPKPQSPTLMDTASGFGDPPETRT
Sequence of neurotensin-1 receptor (P30989 whole entry): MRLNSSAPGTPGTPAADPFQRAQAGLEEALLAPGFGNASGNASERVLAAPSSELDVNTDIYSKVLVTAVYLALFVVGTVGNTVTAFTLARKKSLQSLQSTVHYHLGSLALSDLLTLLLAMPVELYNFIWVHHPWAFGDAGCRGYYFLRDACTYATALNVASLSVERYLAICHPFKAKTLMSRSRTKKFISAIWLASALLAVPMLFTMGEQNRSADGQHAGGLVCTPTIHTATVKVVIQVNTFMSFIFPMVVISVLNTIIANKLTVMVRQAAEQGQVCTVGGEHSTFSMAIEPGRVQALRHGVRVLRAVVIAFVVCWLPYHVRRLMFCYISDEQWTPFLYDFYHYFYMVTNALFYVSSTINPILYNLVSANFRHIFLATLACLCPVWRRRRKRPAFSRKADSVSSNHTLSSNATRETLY

Row | Molecule | Kd (neurotensin-1 receptor) | Kd (neurotensin-2 receptor) | affinity at neurotensin-1 versus neurotensin-2 receptors (selectivity) [1]
1 | Trp11 NT(1-13): NT(1-13) in which amino acid 11 is tryptophan; selective neurotensin-1 receptor agonist (QLYENKPRRPWIL; ends and bridges not checked; UniProt P30990 151-163, looked up, variant Y11W) | ~1 nM | ~27 nM | 
2 | COc1cccc(OC)c1-c1cc(C(=O)NC2(C(=O)O)C3CC4CC(C3)CC2C4)nn1-c1ccc(C(=O)N(C)CCCN(C)C)cc1C(C)C (stereo not drawn) [SR142948A] |  |  | equal affinity
